The text below walks through data of the Immune Epitope Database (IEDB).

A value given as a limit tells only on which side of the number the result lay.

In one assay the target is HLA-A*33:01. Nature of the assay: IEDB peptide-MHC binding, purified MHC/competitive/radioactivity; filed as Kd, often an IC50 or EC50 that approximates it; ≥ and ≤ were set here for values at or beyond the usual limits of such assays. As to conditions: source organism: SARS coronavirus Tor2.
SVSPKLFIR: the Kd is 12500 nM.

With SVVNARLRAK, the Kd is no less than 33700 nM.

Consider TQYNRYLALY, for which the Kd is 1610 nM.

For the sequence TTFDAEYCR, the Kd stood at 111 nM.

Regarding TVCTVCGMWK, the equilibrium dissociation constant (Kd) was found to be 587 nM.

For the sequence TVVQRCASNK, the Kd was found to be 7490 nM.

As for VLAAECTIFK, the equilibrium dissociation constant (Kd) came out at 70.2 nM.

Still in this assay, the particulars now being: source organism: Vaccinia virus WR.
For the sequence SSGFYFEIAR, the Kd came to 179 nM.

In the case of STVKTNLYMK, the Kd was no less than 70000 nM.

For the sequence SVDIETAIR, the Kd was 17500 nM.

For the sequence SVFKGFSDK, the Kd amounted to 13500 nM.

Regarding TIERIFNAK, the Kd turned out to be 1980 nM.

For the sequence TLVPVLEKK, the Kd was 14000 nM.

With VFSFWLLCK, the Kd was 4130 nM.

On to VLDIISSKQY, for which the Kd is 1430 nM.

In the case of VLMHPDFCK, the Kd worked out at 1380 nM.

Turning to VSSLVKNVNK, the Kd is no less than 50000 nM.

VVVKDDPDHY: the Kd was no less than 70000 nM.

WIKNLETYTR: the Kd came out at 1130 nM.

As to YIPGTSVIR, the Kd came out at 2900 nM.

On to YMVTDKTAY, for which the Kd is no less than 44300 nM.

In the case of YTHGIVFDGK, the Kd was found to be 350 nM.

As to YTIERIFNAK, the Kd turned out to be 875 nM.

The next assay has as its target HLA-A*03:01. The description is as above. Conditions: source organism: Lassa virus GA391.
For the sequence SLMSIISTFH, the Kd stood at 850 nM.

The same assay, now with this note: source organism: Lymphocytic choriomeningitis virus (strain Armstrong).
As to VVKWKRDEH, the Kd was no less than 37200 nM.

As for YSKFWYLEH, the Kd is no less than 78000 nM.

Staying with this assay, now noted: source organism: Mammarenavirus juninense.
For TAVAKCNLNH, the Kd was no less than 70000 nM.

Staying with this assay, now noted: source organism: SARS coronavirus Tor2.
Regarding SSIVRQLFK, the Kd was 58.8 nM.

In the case of STCMMCYKR, the Kd turned out to be 2250 nM.

STRHPSKLR: the Kd stood at 440 nM.

On to SVSPKLFIR, for which the Kd came out at 7450 nM.

With SVVNARLRAK, the Kd is 65.5 nM.

As for TQYNRYLALY, the Kd is 266 nM.

Turning to TTFDAEYCR, the Kd was no less than 33800 nM.

With TVCTVCGMWK, the Kd worked out at 24 nM.

TVVQRCASNK: the equilibrium dissociation constant (Kd) was found to be 140 nM.

Regarding VLAAECTIFK, the Kd is 59.9 nM.

The assay is the same for the next values; noted with them: source organism: Vaccinia virus WR.
Consider SSGFYFEIAR, for which the Kd is no less than 21300 nM.

For STVKTNLYMK, the Kd is 212 nM.

Regarding SVDIETAIR, the Kd was no less than 78000 nM.

On to SVFKGFSDK, for which the Kd is 4.28 nM.

Regarding TIERIFNAK, the Kd was determined as 3190 nM.

TLVPVLEKK: the Kd turned out to be 237 nM.

VFSFWLLCK: the Kd was 281 nM.

In the case of VLDIISSKQY, the Kd was determined as 601 nM.

For VLMHPDFCK, the Kd was found to be 8.68 nM.

As for VSSLVKNVNK, the Kd amounted to 172 nM.

As to VVVKDDPDHY, the Kd is no less than 28000 nM.

For the sequence WIKNLETYTR, the Kd was no less than 40900 nM.

On to YIPGTSVIR, for which the Kd was no less than 78000 nM.

On to YMVTDKTAY, for which the dissociation constant (Kd) was no less than 33700 nM.

YTHGIVFDGK: the Kd was 7.46 nM.

As to YTIERIFNAK, the Kd amounted to 231 nM.

In another assay the target is HLA-A*02:02. The assay is described as above. Conditions: source organism: Lymphocytic choriomeningitis virus (strain Armstrong).
ALMDLLMFS: the Kd was determined as 0.936 nM.

Staying with this assay, now noted: source organism: SARS coronavirus Tor2.
Consider ALIARCWYL, for which the Kd turned out to be 0.196 nM.

As for AQFLYLYAL, the Kd stood at 0.92 nM.

The same assay, now with this note: source organism: Vaccinia virus WR.
Regarding ALTDVEKRI, the Kd was 74.2 nM.

AVITETIPI: the Kd was 324 nM.

As for DIMTSTRTI, the equilibrium dissociation constant (Kd) came to 3450 nM.

On to DTCGASINIT, for which the Kd is no less than 23600 nM.

For DTCLLAISAV, the Kd was 2460 nM.

The target of a further assay is HLA-A*11:01. The assay is described as above. As to conditions: source organism: Lassa virus GA391.
With SLMSIISTFH, the Kd is 2280 nM.

Still in this assay, the particulars now being: source organism: Lymphocytic choriomeningitis virus (strain Armstrong).
As to VVKWKRDEH, the dissociation constant (Kd) was 187 nM.

In the case of YSKFWYLEH, the Kd is no less than 40900 nM.

The same assay, now with this note: source organism: Mammarenavirus juninense.
Turning to TAVAKCNLNH, the Kd was no less than 69700 nM.

The same assay, now with this note: source organism: SARS coronavirus Tor2.
Turning to SSIVRQLFK, the Kd was found to be 73.2 nM.

In the case of STCMMCYKR, the Kd is 9.05 nM.

In the case of STRHPSKLR, the Kd was 3210 nM.

Regarding SVSPKLFIR, the dissociation constant Kd is 755 nM.

In the case of SVVNARLRAK, the Kd was 89.9 nM.

As to TQYNRYLALY, the Kd came out at 1570 nM.

Regarding TTFDAEYCR, the Kd was 76.1 nM.

On to TVCTVCGMWK, for which the Kd turned out to be 5.49 nM.

For the sequence TVVQRCASNK, the Kd worked out at 103 nM.

Regarding VLAAECTIFK, the Kd stood at 104 nM.

Staying with this assay, now noted: source organism: Vaccinia virus WR.
On to SSGFYFEIAR, for which the Kd was 90.6 nM.

In the case of STVKTNLYMK, the Kd turned out to be 3.96 nM.

Regarding SVDIETAIR, the Kd was 53 nM.

For SVFKGFSDK, the Kd was found to be 0.852 nM.

Take TIERIFNAK: the Kd was found to be 1.16 nM.

Regarding TLVPVLEKK, the Kd came out at 15.9 nM.

Consider VFSFWLLCK, for which the Kd is 11.9 nM.

Turning to VLDIISSKQY, the Kd is 9680 nM.

As to VLMHPDFCK, the Kd stood at 4.33 nM.

Consider VSSLVKNVNK, for which the Kd stood at 40 nM.

With VVVKDDPDHY, the Kd is no less than 21600 nM.

On to WIKNLETYTR, for which the Kd worked out at 6310 nM.

Regarding YIPGTSVIR, the Kd is no less than 77900 nM.

Regarding YMVTDKTAY, the Kd is no less than 26200 nM.

For YTHGIVFDGK, the Kd stood at 8.46 nM.

As for YTIERIFNAK, the dissociation constant Kd is 36.2 nM.
